{"source": "the RNAGym collection of RNA variant scans (doi:10.7554/elife.90254)", "parents": {"B1": {"name": "LINE1-mini (parent)", "chain": "GGCAGAGCUCAACACAGCGUGGCAAAGUGGCUGUGGCUAGACUGCC"}}, "data": [{"variants_of": "B1", "assay": "self-cleavage, relative activity (ratio to wild type); higher = more cleavage; in vitro, sequencing; the parent is a self-cleaving ribozyme", "values": [{"variant": "A16G U32C", "self-cleavage": 0.26}, {"variant": "A16G U32G", "self-cleavage": 0.11}, {"variant": "A16G U32A", "self-cleavage": 0.07}, {"variant": "A16U G29U", "self-cleavage": 0.39}, {"variant": "A16U G29C", "self-cleavage": 0.53}, {"variant": "A16U G29A", "self-cleavage": 0.38}, {"variant": "G17C C45U", "self-cleavage": 0.84}, {"variant": "G17C C45G", "self-cleavage": 0.56}, {"variant": "G17C C45A", "self-cleavage": 0.16}, {"variant": "G17A U20C", "self-cleavage": 0.12}, {"variant": "G17A U20G", "self-cleavage": 0.07}, {"variant": "G17A U20A", "self-cleavage": 0.1}, {"variant": "A16G G30A", "self-cleavage": 0.67}, {"variant": "A16G G30C", "self-cleavage": 1.19}, {"variant": "A16G G30U", "self-cleavage": 0.31}, {"variant": "A16G C23G", "self-cleavage": 0.64}, {"variant": "A16G C23U", "self-cleavage": 0.82}, {"variant": "A16G C23A", "self-cleavage": 0.56}, {"variant": "A16U G36U", "self-cleavage": 0.06}, {"variant": "A16U G36A", "self-cleavage": 0.06}, {"variant": "A16U G36C", "self-cleavage": 0.07}, {"variant": "G17C C42U", "self-cleavage": 0.1}, {"variant": "G17C C42G", "self-cleavage": 0.03}, {"variant": "G17C C42A", "self-cleavage": 0.05}, {"variant": "A16U G21U", "self-cleavage": 0.19}, {"variant": "A16U G21A", "self-cleavage": 0.23}, {"variant": "A16U G21C", "self-cleavage": 0.27}, {"variant": "G17C G19A", "self-cleavage": 1.14}, {"variant": "G17C G19C", "self-cleavage": 1.39}, {"variant": "G17C G19U", "self-cleavage": 0.24}, {"variant": "A16U C31A", "self-cleavage": 0.21}, {"variant": "A16U C31U", "self-cleavage": 0.03}, {"variant": "A16U C31G", "self-cleavage": 0.04}, {"variant": "G17C C31A", "self-cleavage": 0.65}, {"variant": "G17C C31U", "self-cleavage": 0.16}, {"variant": "G17C C31G", "self-cleavage": 0.14}, {"variant": "A16U C23U", "self-cleavage": 0.23}, {"variant": "A16U C23A", "self-cleavage": 0.19}, {"variant": "A16U C23G", "self-cleavage": 0.1}, {"variant": "A16G C18U", "self-cleavage": 0.33}, {"variant": "A16G C18G", "self-cleavage": 0.04}, {"variant": "A16G C18A", "self-cleavage": 0.16}, {"variant": "A16U U34G", "self-cleavage": 0.02}, {"variant": "A16U U34A", "self-cleavage": 0.04}, {"variant": "A16U U34C", "self-cleavage": 0.07}, {"variant": "A16G C37G", "self-cleavage": 0.02}, {"variant": "A16G C37A", "self-cleavage": 0.08}, {"variant": "A16G C37U", "self-cleavage": 0.04}, {"variant": "G17A A26C", "self-cleavage": 0.34}, {"variant": "G17A A26G", "self-cleavage": 0.1}, {"variant": "G17A A26U", "self-cleavage": 0.21}, {"variant": "A16U A24U", "self-cleavage": 0.11}, {"variant": "A16U A24G", "self-cleavage": 0.1}, {"variant": "A16U A24C", "self-cleavage": 0.1}, {"variant": "G17C A25G", "self-cleavage": 0.18}, {"variant": "G17C A25C", "self-cleavage": 0.51}, {"variant": "G17C A25U", "self-cleavage": 0.87}, {"variant": "A16G U43G", "self-cleavage": 0.08}, {"variant": "A16G U43C", "self-cleavage": 0.04}, {"variant": "A16G U43A", "self-cleavage": 0.02}, {"variant": "A16U U20A", "self-cleavage": 0.06}, {"variant": "A16U U20G", "self-cleavage": 0.03}, {"variant": "A16U U20C", "self-cleavage": 0.26}, {"variant": "A16C U20C", "self-cleavage": 0.19}, {"variant": "A16C U20G", "self-cleavage": 0.08}, {"variant": "A16G G44C", "self-cleavage": 0.19}, {"variant": "A16G G44U", "self-cleavage": 0.05}, {"variant": "A16G G44A", "self-cleavage": 0.25}, {"variant": "A16G U34G", "self-cleavage": 0.08}, {"variant": "A16G U34A", "self-cleavage": 0.02}, {"variant": "A16G U34C", "self-cleavage": 0.08}, {"variant": "G17C", "self-cleavage": 0.79}, {"variant": "G17A", "self-cleavage": 0.19}, {"variant": "A16G U38G", "self-cleavage": 0.01}, {"variant": "A16G U38A", "self-cleavage": 0.4}, {"variant": "A16G U38C", "self-cleavage": 0.18}, {"variant": "A16U G44C", "self-cleavage": 0.03}, {"variant": "A16U G44A", "self-cleavage": 0.05}, {"variant": "A16U G44U", "self-cleavage": 0.03}, {"variant": "A16U G17A", "self-cleavage": 0.06}, {"variant": "A16U G17U", "self-cleavage": 0.03}, {"variant": "A16U G17C", "self-cleavage": 0.2}, {"variant": "A16U A26C", "self-cleavage": 0.06}]}]}
